T1: E. coli expressed human GP73 (amino acids 63 to 400) with C-terminal 6xHis tag (human, UniProt Q8NBJ4 64-401)
T1 construct: No human Fc, not glycosylated; also called GP73 produced in E. coli; E. coli GP73
T1 sequence: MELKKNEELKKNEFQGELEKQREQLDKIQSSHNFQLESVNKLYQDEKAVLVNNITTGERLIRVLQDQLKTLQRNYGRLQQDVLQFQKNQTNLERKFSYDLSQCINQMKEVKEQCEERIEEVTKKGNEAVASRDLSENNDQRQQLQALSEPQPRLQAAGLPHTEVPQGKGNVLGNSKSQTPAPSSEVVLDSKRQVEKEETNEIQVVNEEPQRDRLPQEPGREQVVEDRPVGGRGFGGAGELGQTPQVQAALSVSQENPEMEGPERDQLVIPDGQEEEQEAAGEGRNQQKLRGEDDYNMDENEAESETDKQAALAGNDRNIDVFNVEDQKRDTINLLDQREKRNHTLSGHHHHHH

T2: Aleuria aurantia lectin (Aleuria aurantia, UniProt P18891 2-313)
T2 construct: also called AAL; free AAL
T2 sequence (looked up): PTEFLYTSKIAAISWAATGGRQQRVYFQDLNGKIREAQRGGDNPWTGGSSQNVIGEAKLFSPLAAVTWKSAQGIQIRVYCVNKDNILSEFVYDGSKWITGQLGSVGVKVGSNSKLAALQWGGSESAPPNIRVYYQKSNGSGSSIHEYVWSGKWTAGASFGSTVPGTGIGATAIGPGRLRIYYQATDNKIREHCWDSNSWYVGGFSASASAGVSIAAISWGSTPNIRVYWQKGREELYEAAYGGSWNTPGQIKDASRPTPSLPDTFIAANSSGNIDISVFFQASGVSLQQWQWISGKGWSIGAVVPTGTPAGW

B1: anti-GP73 monoclonal antibody 1B-3246 (antibody, V domains shown)
VH: DVKLVESGGGLVKPGGSLKLSCAASGFTFSSYTMSWVRQTPEKRLEWVATISRGGTYIYYPDSVKGRFTISRDNAKNTLYLQMSSLKSEDTAIYYCTREYFSGDTYDYFDYWGQGTTLTVSS
VL: EIVMTQAAFANPVTLGTSVSISCRSSKSLLHSNGITYLYWYLQKPGQSPQLLIYQMSNLASGVPDRFSSSGSGTDFTLRISRVEAEDVGIYYCAQNLELYTFGGGTKLEIKR
notes: Biotin labelled in some assays; also called mAb 1B-3246; 1B-3246-Bt
B2: anti-GP73 monoclonal antibody 1A-4246 (antibody, V domains shown)
VH: EVMLVESGGGLVKPGGSLKLSCAASGFTFSSYAMSWVRLTPEKRLEWVATISSGSSYTYYPDSVKGRFTISRDNVKSTLYLQMSSLRSEDTAMYYCARNWDGELHYYAMDYWGQGTSVTVSS
VL: QIVLTQSPAIMSASLGERVTMTCTASSSVSSSYLHWYQQKPGSSPKLWVYSTSSLASGVPARFSGSGSGTSYSLTINNMEAEDAATYFCHQYHRSPYTFGGGTKLEIKR
notes: Biotin labelled in some assays; also called mAb 1A-4246; 1A-4246-Bt
B3: anti-GP73 monoclonal antibody 1A-3187 (antibody, V domains shown)
VH: QGQLQQSGAELMKPGASVKISCKATGYTIRSYWIEWVKQRPGHGLEWIGEILPGSGNTNYNEKFKGTATFTADTSSNTVYLHLSSLTSEDSAVYYCANGRGSYRYHWFAYWGQGTLVTVSP
VL: DIVLTQSPASLAVSLGQRATISCKASQSVDYDGDSYMNWYQQKPGQPPKVLIYAASNLESGIPARFSGSGSGTDFTLNIHPVEEEDAATYYCQQSNEDPYTFGGGTKLEMKR
notes: Biotin labelled in some assays
B4: GP73-hFc (human GP73 amino acids 63 to 400 fused at the C-terminus to human IgG1 Fc) (Fc fusion)
chain: ELKKNEFQGELEKQREQLDKIQSSHNFQLESVNKLYQDEKAVLVNNITTGERLIRVLQDQLKTLQRNYGRLQQDVLQFQKNQTNLERKFSYDLSQCINQMKEVKEQCEERIEEVTKKGNEAVASRDLSENNDQRQQLQALSEPQPRLQAAGLPHTEVPQGKGNVLGNSKSQTPAPSSEVVLDSKRQVEKEETNEIQVVNEEPQRDRLPQEPGREQVVEDRPVGGRGFGGAGELGQTPQVQAALSVSQENPEMEGPERDQLVIPDGQEEEQEAAGEGRNQQKLRGEDDYNMDENEAESETDKQAALAGNDRNIDVFNVEDQKRDTINLLDQREKRNHTLRSVECPPCPAPPVAGPSVFLFPPKPKDTLMISRTPEVTCVVVDVSHEDPEVQFNWYVDGMEVHNAKTKPREEQFASTFRVVSVLTVVHQDWLNGKEYKCKVSNKGLPAPIEKTISKTKGQPREPQVYTLPPSREEMTKNQVSLTCLVKGFYPSDIAVEWESNGQPENNYKTTPPMLDSDGSFFLYSKLTVDKSRWQQGNVFSCSVMHEALHNHYTQKSLSLSPGK
notes: Expressed in HEK293F, CHO or HepG2 cells; the host is named under assay; also called HEK expressed GP73-hFc; CHO expressed GP73-hFc

How the values were obtained:
[1] = target: T1, E. coli expressed human GP73 (amino …); assay: Western blot on E. coli expressed GP73 antigen
Procedure: The mammalian cell (HEK and CHO) expressed GP73-hFc or E. coli expressed GP73, as described above, were electrophoresed in a 4-20% SDS-PAGE gel. […] The nitrocellulose membrane was blocked with PBS buffer containing 5% non-fat dry milk and 0.05% Tween 20 for about 1 hr. The nitrocellulose membrane was incubated with an appropriate amount of anti-GP73 monoclonal antibody in 10 mL of 2.5% non-fat dry milk and 0.05% Tween 20 PBS buffer, pH 7.2. The nitrocellulose membranes were washed with 0.05% Tween 20/PBS, pH 7.2, incubated with goat anti-mouse IgG antibody conjugated with HRP for 1 hr at room temperature, and washed with 0.05% Tween 20/PBS buffer. Antibody bound to the GP73 protein was visualized by the addition of freshly prepared metal enhanced 3,3′-Diaminobenzidine in stable peroxide buffer (Pierce, Ill.).

[2] = target: B4; assay: SPR Biacore 2000, mAb captured on rabbit anti-mouse IgG, HEK GP73-hFc analyte 0.412-100 nM, 1:1 fit
Procedure: First, an approximately 13,000-15,000 RU rabbit anti-mouse IgG Capture Biosensor was created by amine-coupling rabbit anti-mouse IgG antibody (GE Healthcare) to a CM5 biosensor chip (GE Healthcare) via EDC/NHS/ethanolamine chemistry provided in an Amine Coupling Kit (GE Healthcare) after pre-treating the biosensor with duplicate injections of 100 mM HCl, 50 mM NaOH, and 0.1% SDS. Purified GP73 antibody and antigen (HEK GP73-hFc) were diluted into a running buffer (hereinafter “running buffer”) composed of HBS-EP buffer (GE Healthcare) supplemented with 0.1% BSA and 0.1% CM-Dextran. Each GP73 antibody was diluted to 1 μg/mL. The GP73-hFc antigen was diluted to concentrations of 0.412 to 100 nM using a 3-fold dilution series assuming an oligomeric molecular weight of 490 kDa (Abbott Laboratories).
The GP73-hFc antigen program was as follows. After equilibrating the rabbit anti-mouse IgG Capture Biosensor for 3 min at 5 μL/minute with running buffer, GP73 antibody (7-14 μL) was injected over individual flow cells with one flow cell being left blank as a reference flow cell. The flow cells were washed with running buffer for 3 min at a flow rate of 60 μL/min. 150 μL of HEK293 expressed GP73-hFc antigen at a random concentration was injected across the biosensor. The biosensor was subsequently re-equilibrated with running buffer for 5 min at a flow rate of 60 μL/minute. All biosensor surfaces were regenerated with one 30 μL injection of 10 mM glycine, pH 1.7 (GE Healthcare), at a flow rate of 10 μL/minute. All concentrations of HEK293 expressed antigen were tested in duplicate. The binding kinetics (association and dissociation) were monitored via sensorgrams during antigen injection and running buffer re-equilibration. The sensorgrams were double-referenced and fit to a 1:1 binding model using Scrubber 2.0 software (BioLogic Software Pty Ltd., Australia) to determine association and dissociation rates, as well as overall KD. Standard errors of determined values are reported in parentheses with respect to the smallest number place value.

[3] = target: T3, bovine serum albumin (bovine, UniProt P02769 25-607); assay: sandwich EIA, rabbit anti-GP73 coated 1 ug/mL, BSA background, supernatant 1:125, HRP goat anti-mouse IgG Fc
T3 construct: also called BSA
Procedure: (§1) Cell supernatant samples were analyzed for anti-GP73 antibodies by EIA. Sheep anti-mouse IgG Fc (Jackson Immunoresearch) was coated on 96 well micro-titer EIA plates at 1 μg/mL. After the capture reagent was coated on the solid phase, it was removed and the plates were blocked using a BSA/PBS block solution. The wells were washed with distilled water and cell supernatants were added to the blocked plates and allowed to incubate at room temperature for at least one hour. A mouse monoclonal antibody 14H4-23 (Drexel University) was used a positive control. The anti-mouse IgG Fc captured the anti-GP73 mouse antibody from the supernatant. Following the incubation, the supernatants were washed off using distilled water. An irrelevant mouse-human chimeric antibody was added to all wells and incubated at room temperature for 30 min to block any captured mouse antibodies that react with the human IgG Fc fusion protein linked to the GP73 antigen. The wells were washed with distilled water and GP73-hFc was added to the plates at 200 ng/mL and incubated for 30 min. Following this incubation, the antigen was washed from the plates using distilled water. Biotin labeled goat anti-GP73 was added to the plates at 200 ng/mL and incubated for 30 min at room temperature. The plates were washed and streptavidin-HRPO (Jackson Immunoresearch) (diluted to approximately 200 ng/mL) was added to the plates and allowed to incubate for 30 min. The plates were washed with distilled water and OPD substrate was used as the chromagen to generate signal. Plates were read at 492 nm and the results were analyzed.
(§2) The 24 well cultures were then evaluated by EIA for their ability to form a sandwich with the rabbit anti-GP73 used as a capture reagent coated directly on the solid phase. The same EIA protocol previously described was used, except rabbit anti-GP73 antibody was coated at 1 μg/mL, the GP73-hFc was tested at 200 ng/mL, and a HRP labeled goat anti-mouse IgG FC antibody was used as the conjugate reagent to generate signal.

[4] = target: B4; assay: sandwich EIA, rabbit anti-GP73 coated 1 ug/mL, GP73-hFc 200 ng/mL, supernatant 1:125, HRP goat anti-mouse IgG Fc
Procedure: as §1, §2

[5] = target: B4; assay: EIA, supernatant mAb captured on sheep anti-mouse IgG Fc, GP73-hFc 200 ng/mL, biotin goat anti-GP73/streptavidin-HRPO; background 0.06
Procedure: as §1

[6] = target: T3, bovine serum albumin; assay: EIA, supernatant 1:25 captured on sheep anti-mouse IgG Fc, BSA in place of antigen
Procedure: as §1
Positive clones were expanded to 24 well plates in IMDM supplemented with 10% FBS and HT supplement. Following 5-14 days growth, the 24 well cultures were evaluated by EIA in the same manner as previously described, except the supernatant samples were titrated against GP73-hFc and BSA to eliminate non-specific protein binders. Once again the clones generating signal at least 3 times greater than background were considered positive and selected for further evaluation.

[7] = target: T2, Aleuria aurantia lectin; assay: EIA, GP73-hFc captured on donkey anti-human IgG Fc, biotin AAL pre-mixed with free fucose
Procedure: The biotin labeled anti-GP73 mAbs were tested to determine if they were sensitive to the presence of fucose on the GP73-hFc antigen by EIA. Aleuria Aurantia Lectin (AAL) (Vector Laboratories) binds fucose with a high degree of specificity. Donkey anti-human IgG Fc (Jackson Immunoresearch) was coated on 96 well micro titer EIA plates at approximately 1 μg/mL. After the capture reagent was coated on the solid phase, the capture reagent was removed and the plates were blocked for 30 min using Protein-Free T20 (TBS) Blocking Buffer (Thermo Scientific). The wells were washed with distilled water. A 200 ng/mL solution of GP73-hFc antigen was added to the blocked plates and allowed to incubate at room temperature for at least 45 min then washed with distilled water. Fucose was added to the wells of a separate non-absorbing microtiter plate in serial dilutions starting from 1000 μg/mL Biotin labeled anti-GP73 mAbs were added to the plates at predetermined concentrations for each mAb ranging from 50 to 2000 ng/mL and incubated for 45 min at room temperature. The mixture was added to the microtiter plates with the captured GP73-hFc and allowed to incubate for 15-20 min at room temperature. Biotin labeled AAL was used as a positive control for the assay and a biotin labeled irrelevant mAb was used as the negative control. […] Plates were read at 492 nm and the results were analyzed.

T3 sequence (P02769 25-607 limits assumed): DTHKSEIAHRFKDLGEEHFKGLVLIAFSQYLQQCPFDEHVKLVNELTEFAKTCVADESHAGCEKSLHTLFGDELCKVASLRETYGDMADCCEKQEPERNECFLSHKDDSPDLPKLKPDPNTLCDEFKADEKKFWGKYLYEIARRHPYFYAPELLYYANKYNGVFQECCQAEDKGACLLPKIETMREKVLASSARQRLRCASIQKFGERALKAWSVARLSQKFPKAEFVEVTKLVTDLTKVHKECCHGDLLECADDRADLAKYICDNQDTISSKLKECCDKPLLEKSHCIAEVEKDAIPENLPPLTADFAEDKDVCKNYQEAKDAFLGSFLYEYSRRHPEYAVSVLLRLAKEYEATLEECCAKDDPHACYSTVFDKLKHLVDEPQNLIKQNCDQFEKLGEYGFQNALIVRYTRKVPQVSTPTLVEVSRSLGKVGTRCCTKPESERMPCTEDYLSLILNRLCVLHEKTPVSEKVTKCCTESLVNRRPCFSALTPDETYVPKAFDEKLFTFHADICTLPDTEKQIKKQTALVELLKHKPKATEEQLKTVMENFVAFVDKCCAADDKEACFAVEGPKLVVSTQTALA

Binder: B1
- binding result [1]: binds
- Kd [2]: 0.079 nM
- koff [2]: 0.00025 s⁻¹
- kon [2]: 3.18e+06 M⁻¹ s⁻¹
- BSA Background OD (A492) [3]: 0.1 OD (A492)
- GP73-hFc OD (A492) [4]: 0.79 OD (A492)
- OD (A492) [5]: 1.48 OD (A492)

Binder: B2
- BSA Background OD (A492) [6]: 0.04 OD (A492)

Binder: B3
- BSA Background OD (A492) [6]: 0.11 OD (A492)
- BSA Background OD (A492) [3]: 0.09 OD (A492)

Binder: B4
- binding result [7]: binds
